Several values for one entry are separate records, joined by “and”; a condition that tells them apart may be missing. Equal values may be shown once. One block for each molecule: values may come before it.
How the values were obtained:
[1] = molecular target: Anabaena sensory rhodopsin (Anabaena sp. PCC7120); assay: high-speed atomic force microscopy (HS-AFM); protein reconstituted in asolectin lipid membrane of limited size with MSP1E3D1, on APTES-treated mica; 20 mM Tris-HCl (pH 8.0), 50 mM NaCl, room temperature; oligomer seen subunit by subunit
[2] = molecular target: Anabaena sensory rhodopsin (Anabaena sp. PCC7120); assay: circular dichroism spectroscopy (visible, exciton coupling of retinals); protein reconstituted in POPE/POPG (3:1) liposomes, protein:lipid 1:50; 100 mM NaCl, 20 mM Tris-HCl (pH 8.0), 25 °C
[3] = molecular target: Fulvimarina rhodopsin (Fulvimarina pelagi); assay: high-speed atomic force microscopy (HS-AFM); protein reconstituted in asolectin lipid membrane of limited size with MSP1E3D1, on APTES-treated mica; 20 mM Tris-HCl (pH 8.0), 50 mM NaCl, room temperature; oligomer seen subunit by subunit
[4] = molecular target: Parvularcula oceani xenorhodopsin (Parvularcula oceani); assay: as above
[5] = molecular target: Parvularcula oceani xenorhodopsin (Parvularcula oceani); assay: circular dichroism spectroscopy (visible, exciton coupling of retinals); protein reconstituted in POPE/POPG (3:1) liposomes, protein:lipid 1:50; 100 mM NaCl, 20 mM Tris-HCl (pH 8.0), 25 °C
[6] = molecular target: KR2_(278) (Krokinobacter eikastus); assay: high-speed atomic force microscopy (HS-AFM); protein reconstituted in asolectin lipid membrane with MSP1E3D1, on APTES-treated mica; acidic solution: 20 mM citrate-NaOH (pH 4.3), 50 mM NaCl, room temperature
[7] = molecular target: KR2_(278) (Krokinobacter eikastus); assay: high-speed atomic force microscopy (HS-AFM); protein reconstituted in asolectin lipid membrane of limited size with MSP1E3D1, on APTES-treated mica; 20 mM Tris-HCl (pH 8.0), 50 mM NaCl, room temperature; oligomer seen subunit by subunit
[8] = molecular target: Krokinobacter eikastus rhodopsin 2 (Krokinobacter eikastus); assay: circular dichroism spectroscopy (visible, exciton coupling of retinals); protein solubilized in DDM
[9] = molecular target: Krokinobacter eikastus rhodopsin 2 (Krokinobacter eikastus); assay: high-speed atomic force microscopy (HS-AFM); protein reconstituted in asolectin lipid membrane of limited size with MSP1E3D1, on APTES-treated mica; 20 mM Tris-HCl (pH 8.0), 50 mM NaCl, room temperature; oligomer seen subunit by subunit
[10] = molecular target: Kineococcus radiotolerans actinorhodopsin (Kineococcus radiotolerans); assay: as above
[11] = molecular target: Quadrisphaera actinorhodopsin (Quadrisphaera sp. R2A-380-A); assay: as above
[12] = molecular target: the molecule itself; assay: as above
[13] = molecular target: T1, Natronomonas pharaonis sensory rhodopsin II (Natronomonas pharaonis), P42196; assay: as above; conditions: remark: other sources report otherwise
T1 chain: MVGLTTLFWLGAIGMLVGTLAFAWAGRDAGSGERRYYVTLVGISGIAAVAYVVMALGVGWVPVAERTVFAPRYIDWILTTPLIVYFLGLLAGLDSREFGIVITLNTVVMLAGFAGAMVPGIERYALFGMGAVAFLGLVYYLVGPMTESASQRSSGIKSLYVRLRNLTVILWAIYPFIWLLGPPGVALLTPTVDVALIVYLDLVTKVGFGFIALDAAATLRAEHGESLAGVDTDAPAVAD

stoichiometry N [1]: 3
stoichiometry N [2]: 3
Molecule: Anabaena sensory rhodopsin (natural protein)

stoichiometry N [3]: 5
Molecule: Fulvimarina rhodopsin (natural protein)

stoichiometry N [4]: 3
stoichiometry N [5]: 3
Molecule: Parvularcula oceani xenorhodopsin (natural protein)

stoichiometry N [6]: 5
stoichiometry N [7]: 5
Molecule: KR2_(278) (domain or fragment)

stoichiometry N [8]: 5
stoichiometry N [9]: 5
Molecule: Krokinobacter eikastus rhodopsin 2 (natural protein)

Molecule: Kineococcus radiotolerans actinorhodopsin (natural protein)
stoichiometry N [10]: 5

stoichiometry N [11]: 5
Molecule: Quadrisphaera actinorhodopsin (natural protein)

B1: green-absorbing proteorhodopsin (natural protein, uncultured marine gamma proteobacterium, UniProt Q9F7P4 18-249, looked up)
chain: AGGGDLDASDYTGVSFWLVTAALLASTVFFFVERDRVSAKWKTSLTVSGLVTGIAFWHYMYMRGVWIETGDSPTVFRYIDWLLTVPLLICEFYLILAAATNVAGSLFKKLLVGSLVMLVFGYMGEAGIMAAWPAFIIGCLAWVYMIYELWAGEGKSACNTASPAVQSAYNTMMYIIIFGWAIYPVGYFTGYLMGDGGSALNLNLIYNLADFVNKILFGLIIWNVAVKESSNA
modifications: retinal chromophore
notes: Green-absorbing proteorhodopsin (GPR), proton pump, from uncultured marine gamma proteobacterium; Pentamers (76%) and hexamers (24%) coexist in the lipid; copies gives the dominant form; also called green proteorhodopsin
stoichiometry N [12]: 5 and 6

B2: Natronomonas pharaonis halorhodopsin (natural protein, UniProt P15647 1-291, looked up)
chain: MTETLPPVTESAVALQAEVTQRELFEFVLNDPLLASSLYINIALAGLSILLFVFMTRGLDDPRAKLIAVSTILVPVVSIASYTGLASGLTISVLEMPAGHFAEGSSVMLGGEEVDGVVTMWGRYLTWALSTPMILLALGLLAGSNATKLFTAITFDIAMCVTGLAAALTTSSHLMRWFWYAISCACFLVVLYILLVEWAQDAKAAGTADMFNTLKLLTVVMWLGYPIVWALGVEGIAVLPVGVTSWGYSFLDIVAKYIFAFLLLNYLTSNESVVSGSILDVPSASGTPADD
modifications: retinal chromophore
notes: Halorhodopsin (chloride pump) from Natronomonas pharaonis; also called NpHR
stoichiometry N [12]: 3

stoichiometry N [13]: 3
B3: Natronomonas pharaonis sensory rhodopsin II, P42196 1-239 (natural protein)
chain: MVGLTTLFWLGAIGMLVGTLAFAWAGRDAGSGERRYYVTLVGISGIAAVAYVVMALGVGWVPVAERTVFAPRYIDWILTTPLIVYFLGLLAGLDSREFGIVITLNTVVMLAGFAGAMVPGIERYALFGMGAVAFLGLVYYLVGPMTESASQRSSGIKSLYVRLRNLTVILWAIYPFIWLLGPPGVALLTPTVDVALIVYLDLVTKVGFGFIALDAAATLRAEHGESLAGVDTDAPAVAD
modifications: here or on the partner: retinal chromophore; retinal chromophore

B4: Gloeobacter rhodopsin (natural protein, Gloeobacter violaceus PCC 7421, UniProt Q7NP59 1-298, looked up)
chain: MLMTVFSSAPELALLGSTFAQVDPSNLSVSDSLTYGQFNLVYNAFSFAIAAMFASALFFFSAQALVGQRYRLALLVSAIVVSIAGYHYFRIFNSWDAAYVLENGVYSLTSEKFNDAYRYVDWLLTVPLLLVETVAVLTLPAKEARPLLIKLTVASVLMIATGYPGEISDDITTRIIWGTVSTIPFAYILYVLWVELSRSLVRQPAAVQTLVRNMRWLLLLSWGVYPIAYLLPMLGVSGTSAAVGVQVGYTIADVLAKPVFGLLVFAIALVKTKADQESSEPHAAIGAAANKSGGSLIS
modifications: retinal chromophore
notes: Gloeobacter rhodopsin (GR), proton pump, from Gloeobacter violaceus PCC 7421; also called GR; rhodopsin from Gloeobacter violaceus PCC 7421; not shown: His6, C-terminal, kept
stoichiometry N [12]: 5

Source: paper PMC5974397, “Oligomeric states of microbial rhodopsins determined by high-speed atomic force microscopy and circular dichroic spectroscopy” (Scientific Reports, 2018)
